{"source": "patent US10654917B2", "about": "“Antibody molecules and peptide delivery systems for use in alzheimer's disease and related disorders” (TECHNOPHAGE, INVESTIGAÇĀO E DESENVOLVIMENTO EM …, priority 2015, dated 2020)", "molecules": {"B1": {"name": "#20: anti-BAP42 sdAb, SEQ ID NO: 2 (protein)", "VHH": "ELDLTQTPSSKSVPVGDTVTINCQASESVYSNNRLAWFQQKPGQPPKLLIYYASTLASGVPSRFKGSGSGTQFTLTISDVVCDDAATYYCAGYKSSTSDGIAFGGGTEVVVK", "modifications": "/note=“Description of Unknown rabbit immunoglobulin VL domain polypeptide”; /note=“#20”"}, "B2": {"name": "#26: anti-BAP42 sdAb, SEQ ID NO: 18 (antibody, V domains shown)", "VL": "ELDLTQTPSPVSAAVGGTVTISCQSSESVYSNNRLAWYQQKPGQPPKLLIYLASSLASGVPSRFKGSGSGTQFTLTIRDLECDDAATYYCLGYRSGSDGDAFGGGTELEIL"}, "B3": {"name": "#2: anti-BAP42 sdAb, SEQ ID NO: 1 (antibody, V domains shown)", "VL": "ELVMTQTPSPVSAAVGGTVSISCQSSKSVYNNNWLSWFQQKPGQPPKLLIYSASTLASGVSSRFKGSGSGTQFTLTISDVQCDDAATYYCQGEFDCSGDCNVFGGGTELEIL"}}, "key": {"[1]": {"experiment": "CAT-fusion assay: chloramphenicol resistance as measure of sdAb stability", "type": "cell-based, E. coli", "description": "Clones were further selected for stability using a modified CAT-fusion assay, as previously described (see, e.g., WO 2008/136694 to Goncalves et al). Specifically, the CAT gene was amplified from pCAT (Stratagene) by PCR and inserted into pET-derived plasmid using EcoRI and SphI restriction sites to create the pE-CAT. The 5′PCR primer originally used to clone the variable domains was also designed to contain two sequential and different SfiI cloning sites, and an amber codon (TAG) just before the beginning of the CAT gene.\nTo clone single-domain antibody libraries fused into the CAT gene, SDVL fragments were generated by PCR from phagemid vectors selected by panning. The resulting SDVL PCR fragments were gel-purified, digested with the restriction endonuclease SfiI, and cloned independently into the appropriately SfiI-cut vector pE-CAT. The pSDVL-CAT constructs were under the control of the strong Lac promoter that also included an N-terminal His6 affinity tag and the ampicillin resistance gene. Alternatively, SDVL fragments may be cloned into readily available vectors designed to express cloned sequences as fusion proteins with CAT, e.g., the PCFN1 vector (see Maxwell, et al (1999) J Prot Sci 8:1908-1911, incorporated by reference in its entirety).\nChloramphenicol resistance assays were performed by transforming ER2783 cells (New England Biolabs, Inc) with each single domain CAT-fusion library. The transformation mixtures were inoculated into 5 mL of SOC and incubated at 37° C. for 1 hour. Next, 10 mL of SB medium with 3 μL of 100 mg/ml ampicillin was added to each library. A total of 15 mL of each culture was shaken for 1 hour at 37° C. Subsequently, 4.5 μL of 100 mg/ml ampicillin was added and cultures shaken for one hour at 37° C. Then 85 mL of SB medium with 85 μL of 100 mg/ml ampicillin was added and cultures grown overnight at 37° C. The following day, 600 μL of each culture was used to inoculate 20 mL of SB medium containing 100 μg/mL of ampicillin.\nExpression of CAT-fusion single domain proteins was induced by addition of 0.5 mM IPTG when the optical density of cultures reached 0.9 (at […]). After 2 hours of incubation at 37° C., 100 μL aliquots of each library were plated on agar plates with IPTG (200 μg/mL) and various concentrations of chloramphenicol. Plates were incubated at 37° C. for 16-20 hours. The level of resistance was quantified as the highest level of chloramphenicol at which colonies appeared after the 37° C. incubation period. […] Results are shown in Table 6, below, where +++ indicates over 600 colonies detected; ++ indicates 400-600 colonies detected; + indicates 1-399 colonies detected; and − indicates no colonies detected at the corresponding chloramphenicol concentration. “sdAb2”, “sdAb6”, “sdAb20”, and “sdAb26” are sdAb candidates that bind BAP42 oligomers."}, "oligomeric form of BAP42": {"target": "T1, oligomeric form of BAP42 (Homo sapiens, UniProt P05067)", "T1 construct": "“beta-amyloid peptide 42”, or “beta-amyloid peptide 1-42”; oligomerised in house (1 mg/mL, stirring 16 h at 37 °C, retained on 5 kDa filter)", "T1 sequence (P05067 672-713 limits assumed)": "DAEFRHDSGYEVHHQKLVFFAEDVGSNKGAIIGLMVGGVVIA", "experiment": "BIAcore binding profile to BAP42 oligomers", "description": "Anti-oligomer sdAbs where characterized further regarding their relative binding profile to BAP42 oligomers by BIAcore.\nResults are showing in FIGS. 16A-16D, respectively (kinetic studies) and Tables 14-16, respectively (biodistribution studies), presented below."}, "[2]": {"design": "species or system CD1 mice", "conditions": "mouse, in vivo", "experimental": "The different antibody-peptide constructs were used in biodistribution assays, and results compared with the biodistribution of the respective DEN2C peptides (pepH1, pepH2, pepH3, and pepM′, chemically synthesized). […] After expression and purification, the sdAbs and sdAb-peptide constructs were conjugated to technetium (^99Tc) and a biodistribution assay was performed, as previously described.\nTables 14-16 show the biodistribution of different anti-BAP42 sdAbs and constructs thereof with different peptides (“pepH3”)."}, "[3]": {"conditions": "10^0, [chloramphenicol] 0.03 mM"}, "[4]": {"conditions": "10^0, [chloramphenicol] 0.06 mM"}, "[5]": {"conditions": "10^0, [chloramphenicol] 0.25 mM"}, "[6]": {"conditions": "10^0, [chloramphenicol] 0.31 mM"}, "[7]": {"conditions": "10^0, [chloramphenicol] 0.62 mM"}, "[8]": {"conditions": "10^0, [chloramphenicol] 1.24 mM"}, "[9]": {"conditions": "10^0, [chloramphenicol] 1.86 mM"}, "[10]": {"conditions": "10^0, [chloramphenicol] 2.48 mM"}, "[11]": {"conditions": "10^−2, [chloramphenicol] 0.03 mM"}, "[12]": {"conditions": "10^−2, [chloramphenicol] 0.06 mM"}, "[13]": {"conditions": "10^−2, [chloramphenicol] 0.25 mM"}, "[14]": {"conditions": "10^−2, [chloramphenicol] 0.31 mM"}, "[15]": {"conditions": "10^−2, [chloramphenicol] 0.62 mM"}, "[16]": {"conditions": "10^−2, [chloramphenicol] 1.24 mM"}, "[17]": {"conditions": "10^−2, [chloramphenicol] 1.86 mM"}, "[18]": {"conditions": "10^−2, [chloramphenicol] 2.48 mM"}}}
{"molecule": "B1", "values": [{"measurement": "colonies detected (CAT-fusion chloramphenicol resistance)", "setting": "[1]; [3]", "value": "+++ (+++ indicates over 600 colonies detected)"}, {"measurement": "colonies detected (CAT-fusion chloramphenicol resistance)", "setting": "[1]; [4]", "value": "+++ (+++ indicates over 600 colonies detected)"}, {"measurement": "colonies detected (CAT-fusion chloramphenicol resistance)", "setting": "[1]; [5]", "value": "+++ (+++ indicates over 600 colonies detected)"}, {"measurement": "colonies detected (CAT-fusion chloramphenicol resistance)", "setting": "[1]; [6]", "value": "+++ (+++ indicates over 600 colonies detected)"}, {"measurement": "colonies detected (CAT-fusion chloramphenicol resistance)", "setting": "[1]; [7]", "value": "+++ (+++ indicates over 600 colonies detected)"}, {"measurement": "colonies detected (CAT-fusion chloramphenicol resistance)", "setting": "[1]; [8]", "value": "+++ (+++ indicates over 600 colonies detected)"}, {"measurement": "colonies detected (CAT-fusion chloramphenicol resistance)", "setting": "[1]; [9]", "value": "+++ (+++ indicates over 600 colonies detected)"}, {"measurement": "colonies detected (CAT-fusion chloramphenicol resistance)", "setting": "[1]; [10]", "value": "++ (++ indicates 400-600 colonies detected)"}, {"measurement": "colonies detected (CAT-fusion chloramphenicol resistance)", "setting": "[1]; [11]", "value": "+++ (+++ indicates over 600 colonies detected)"}, {"measurement": "colonies detected (CAT-fusion chloramphenicol resistance)", "setting": "[1]; [12]", "value": "+++ (+++ indicates over 600 colonies detected)"}, {"measurement": "colonies detected (CAT-fusion chloramphenicol resistance)", "setting": "[1]; [13]", "value": "+++ (+++ indicates over 600 colonies detected)"}, {"measurement": "colonies detected (CAT-fusion chloramphenicol resistance)", "setting": "[1]; [14]", "value": "+++ (+++ indicates over 600 colonies detected)"}, {"measurement": "colonies detected (CAT-fusion chloramphenicol resistance)", "setting": "[1]; [15]", "value": "+++ (+++ indicates over 600 colonies detected)"}, {"measurement": "colonies detected (CAT-fusion chloramphenicol resistance)", "setting": "[1]; [16]", "value": "+++ (+++ indicates over 600 colonies detected)"}, {"measurement": "colonies detected (CAT-fusion chloramphenicol resistance)", "setting": "[1]; [17]", "value": "− (− indicates no colonies detected)"}, {"measurement": "colonies detected (CAT-fusion chloramphenicol resistance)", "setting": "[1]; [18]", "value": "− (− indicates no colonies detected)"}, {"measurement": "binding profile to the oligomeric form of BAP42", "setting": "oligomeric form of BAP42", "value": "best binding profiles"}]}
{"molecule": "B2", "values": [{"measurement": "colonies detected (CAT-fusion chloramphenicol resistance)", "setting": "[1]; [3]", "value": "+++ (+++ indicates over 600 colonies detected)"}, {"measurement": "colonies detected (CAT-fusion chloramphenicol resistance)", "setting": "[1]; [4]", "value": "+++ (+++ indicates over 600 colonies detected)"}, {"measurement": "colonies detected (CAT-fusion chloramphenicol resistance)", "setting": "[1]; [5]", "value": "+++ (+++ indicates over 600 colonies detected)"}, {"measurement": "colonies detected (CAT-fusion chloramphenicol resistance)", "setting": "[1]; [6]", "value": "+++ (+++ indicates over 600 colonies detected)"}, {"measurement": "colonies detected (CAT-fusion chloramphenicol resistance)", "setting": "[1]; [7]", "value": "+++ (+++ indicates over 600 colonies detected)"}, {"measurement": "colonies detected (CAT-fusion chloramphenicol resistance)", "setting": "[1]; [8]", "value": "+++ (+++ indicates over 600 colonies detected)"}, {"measurement": "colonies detected (CAT-fusion chloramphenicol resistance)", "setting": "[1]; [9]", "value": "+++ (+++ indicates over 600 colonies detected)"}, {"measurement": "colonies detected (CAT-fusion chloramphenicol resistance)", "setting": "[1]; [10]", "value": "++ (++ indicates 400-600 colonies detected)"}, {"measurement": "colonies detected (CAT-fusion chloramphenicol resistance)", "setting": "[1]; [11]", "value": "+++ (+++ indicates over 600 colonies detected)"}, {"measurement": "colonies detected (CAT-fusion chloramphenicol resistance)", "setting": "[1]; [12]", "value": "+++ (+++ indicates over 600 colonies detected)"}, {"measurement": "colonies detected (CAT-fusion chloramphenicol resistance)", "setting": "[1]; [13]", "value": "+++ (+++ indicates over 600 colonies detected)"}, {"measurement": "colonies detected (CAT-fusion chloramphenicol resistance)", "setting": "[1]; [14]", "value": "+++ (+++ indicates over 600 colonies detected)"}, {"measurement": "colonies detected (CAT-fusion chloramphenicol resistance)", "setting": "[1]; [15]", "value": "+++ (+++ indicates over 600 colonies detected)"}, {"measurement": "colonies detected (CAT-fusion chloramphenicol resistance)", "setting": "[1]; [16]", "value": "+++ (+++ indicates over 600 colonies detected)"}, {"measurement": "colonies detected (CAT-fusion chloramphenicol resistance)", "setting": "[1]; [17]", "value": "− (− indicates no colonies detected)"}, {"measurement": "colonies detected (CAT-fusion chloramphenicol resistance)", "setting": "[1]; [18]", "value": "− (− indicates no colonies detected)"}, {"measurement": "binding profile to the oligomeric form of BAP42", "setting": "oligomeric form of BAP42", "value": "best binding profiles"}]}
{"molecule": "B3", "values": [{"measurement": "factor by which washout from the brain is slowed on linking to delivery peptide pepH3", "setting": "[2]", "value": "about 2"}, {"measurement": "factor of increase of presence in the brain on linking to delivery peptide pepH3", "setting": "[2]", "value": "about 3"}, {"measurement": "colonies detected (CAT-fusion chloramphenicol resistance)", "setting": "[1]; [3]", "value": "+++ (+++ indicates over 600 colonies detected)"}, {"measurement": "colonies detected (CAT-fusion chloramphenicol resistance)", "setting": "[1]; [4]", "value": "+++ (+++ indicates over 600 colonies detected)"}, {"measurement": "colonies detected (CAT-fusion chloramphenicol resistance)", "setting": "[1]; [5]", "value": "+++ (+++ indicates over 600 colonies detected)"}, {"measurement": "colonies detected (CAT-fusion chloramphenicol resistance)", "setting": "[1]; [6]", "value": "+++ (+++ indicates over 600 colonies detected)"}, {"measurement": "colonies detected (CAT-fusion chloramphenicol resistance)", "setting": "[1]; [7]", "value": "+++ (+++ indicates over 600 colonies detected)"}, {"measurement": "colonies detected (CAT-fusion chloramphenicol resistance)", "setting": "[1]; [8]", "value": "+++ (+++ indicates over 600 colonies detected)"}, {"measurement": "colonies detected (CAT-fusion chloramphenicol resistance)", "setting": "[1]; [9]", "value": "+++ (+++ indicates over 600 colonies detected)"}, {"measurement": "colonies detected (CAT-fusion chloramphenicol resistance)", "setting": "[1]; [10]", "value": "++ (++ indicates 400-600 colonies detected)"}, {"measurement": "colonies detected (CAT-fusion chloramphenicol resistance)", "setting": "[1]; [11]", "value": "+++ (+++ indicates over 600 colonies detected)"}, {"measurement": "colonies detected (CAT-fusion chloramphenicol resistance)", "setting": "[1]; [12]", "value": "+++ (+++ indicates over 600 colonies detected)"}, {"measurement": "colonies detected (CAT-fusion chloramphenicol resistance)", "setting": "[1]; [13]", "value": "+++ (+++ indicates over 600 colonies detected)"}, {"measurement": "colonies detected (CAT-fusion chloramphenicol resistance)", "setting": "[1]; [14]", "value": "+++ (+++ indicates over 600 colonies detected)"}, {"measurement": "colonies detected (CAT-fusion chloramphenicol resistance)", "setting": "[1]; [15]", "value": "+++ (+++ indicates over 600 colonies detected)"}, {"measurement": "colonies detected (CAT-fusion chloramphenicol resistance)", "setting": "[1]; [16]", "value": "+++ (+++ indicates over 600 colonies detected)"}, {"measurement": "colonies detected (CAT-fusion chloramphenicol resistance)", "setting": "[1]; [17]", "value": "− (− indicates no colonies detected)"}, {"measurement": "colonies detected (CAT-fusion chloramphenicol resistance)", "setting": "[1]; [18]", "value": "− (− indicates no colonies detected)"}, {"measurement": "binding profile to the oligomeric form of BAP42", "setting": "oligomeric form of BAP42", "value": "best binding profiles"}]}
